Test system: MS2 coat protein
Test: apparent KD of MS2 coat protein; designed switch direction (-1 OFF switch, 1 ON switch): -1; higher = weaker reporter binding
Outline: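 Transcription of designed RNA switches on Illumina chips was done by stalled E. coli RNA polymerase. SNAP-549-labelled MS2 coat protein was then titrated in doubling steps from 0.7 or 1.5 nM to 3 µM, with steps of 0.8–1.5 h at the lowest and 10–20 min at the highest concentration. The per-design median over clusters of curve-fitted normalised fluorescence is reported as apparent KD.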

[1] = input ligand: microRNA oligo, concentration not stated
[2] = Eterna round: R95, input ligand: FMN 200 uM
[3] = Eterna round: R95, input ligand: microRNA oligo, concentration not stated
[4] = Eterna round: R95, input ligand: none

Row | Sequence | apparent KD of MS2 coat protein (input ligand: FMN 200 uM) | apparent KD of MS2 coat protein (input ligand: none) | apparent KD of MS2 coat protein [1] | apparent KD of MS2 coat protein [2] | apparent KD of MS2 coat protein [3] | apparent KD of MS2 coat protein [4]
1 | UGAUCACAUGAGGAUCACCCAUGUCAGGAUAUCGUCACUGGAGCUGCGGCUCCAGUGACGAGAAGGGAUAUAAU [E1/5-A3] (Eterna round: R97, puzzle: Exclusion 1) | 293 nM | 104 nM |  |  |  | 
2 | UGAUCACAUGAGGAUCACCCAUGUCAGGAUAUCUACAUUGAAGCCUCGGCUUCAAUGUAGAGAAGGGAUAUAAU [E1/5-B2] (Eterna round: R97, puzzle: Exclusion 1) | 189 nM | 86.8 nM |  |  |  | 
3 | UGAUCUAGCGGAGGAUAUACAUGAGGAUCACCCAUGUAUAGGCUAUGACCGUAGUCGUGGAACAUGUAGAAGGCCGCUAGAUCU [JL ENG2 3.79] (Eterna round: R96, puzzle: Exclusion NG 2) | 569 nM | 45.9 nM | 40.3 nM |  |  | 
4 | UGAUGACAUGAGGAUCACCCAUGUCAGGAUAUUGAUCGUGAUCGGAAAUGAUCGUGAUCGAGAAGGGACUGUCG [-24.4, -21.4 kcal, A 28%, 2] (Eterna round: R97, puzzle: Exclusion 1) | 31.8 nM | 27.6 nM |  |  |  | 
5 | UGAUUGUUUACCAGGUUAUACAUGAGGAUCACCCAUGUAGAUCCUACGUGCGCGUUAUACCGCUCGUCUUAUUCCCA [Sensor-V1 #77] (Eterna round: R97, puzzle: Sensor, turn-off variant 1) | 19.1 nM | 19.8 nM |  |  |  | 
6 | UGCAGACGAGGAUAUAGAUUUAGAUACAUGAGGAUCACCCAUGUAUAUAUGUAUUUAGAUUUAGAAGGCGUCUGCU [E5/15-A4] (Eterna round: R97, puzzle: Exclusion 5) | 240 nM | 283 nM |  |  |  | 
7 | UGCCUAUGAGGAUAUACAUUGAAUAAGAUUCAUGUAAAACUACAUGAGGAUCACCCAUGUAGAAGGCAUGGGCU [Mat - Exclusion 2 - JL Mod - D70] (Eterna round: R97, puzzle: Exclusion 2) | 29 nM | 19.1 nM |  |  |  | 
8 | UGCGGGCUUUUGAGACCUCACAUGAGGAUCACCCAUGUGCUUGUCUUGUGGGUCGGUCGGUCGUUGGCUGGCUGACG [Sensor-V1 #96] (Eterna round: R97, puzzle: Sensor, turn-off variant 1) | 19.2 nM | 19.3 nM |  |  |  | 
9 | UGCGGGCUUUUGAGACCUCACAUGAGGAUCACCCAUGUGCUUGUCUUGUGGGUCGGUCGGUCGUUGGCUGGCUGGCG [Sensor-V1 #95] (Eterna round: R97, puzzle: Sensor, turn-off variant 1) | 20 nM | 19.3 nM |  |  |  | 
10 | UGCGGUUGAGGAUAUACGUAGAACUAGGUUCAUGUAAAACUACAUGAGGAUCACCCAUGUAGAAGGCAAUCGCU [Mat - Exclusion 2 - JL Mod - D41] (Eterna round: R97, puzzle: Exclusion 2) | 23.9 nM | 20.3 nM |  |  |  | 
11 | UGCUAGUCAGGAUAUACGAACAUGUCAAAAGACGUGAAGGGACAUGAGGAUCACCCAUGUAGAAGGGACUAGCU [salish99_ex2_r3_006] (puzzle: Exclusion 2) |  |  |  | 165 nM | 25.2 nM | 27.1 nM
12 | UGCUAGUGAGGAUAUGCUGGAAUAAAGAUUUGACGUGGCGAACAUGAGGAUCACCCAUGUAGAAGGCACAAUAC [Ususedes] (puzzle: Exclusion 2) |  |  |  |  | 12.1 nM | 
13 | UGCUGAGUUGACAGUGGUAACAUGAGGAUCACCCAUGUAUGUUUGUGCUUAAGCGGGUUGUUUCUUGUUCGUCUCUC [Eternabot (L2) Solution 5] (Eterna round: R97, puzzle: Sensor, turn-off variant 1) | 262 nM | 349 nM |  |  |  | 
14 | UGGACACCAGUAGGAUAUGUAGGAUAUGUUGUUGAGGAUCACCCAACAAAUUAAACGACAGAAGGACAGAAGGACUAUUAUCCU [pwkr exNG2 2xFMN 1xF5.1] (Eterna round: R96, puzzle: Exclusion NG 2) | 52.5 nM | 60.8 nM | 57.8 nM |  |  | 
15 | UGGCUACCUUGGUGCUCUACAAGCUUUUUGCUCGUUUUAACAUGAGGAUCACCCAUGUCUAGUGGAUCUGAUCGGGC [JL ViennaUCT Isreen mod 1] (puzzle: Sensor v3, turn-off variant 2) |  |  |  | 62.1 nM | 139 nM | 62.7 nM
16 | UGGGUACUCCAUAGAAGAAACAUGAGGAUCACCCAUGUAGGGCAAGUUUUUUGCUCGUCAUAGGUUGAGGGAUUGGA [JR_SV3TOV1_Sub016] (puzzle: Sensor v3, turn-off variant 1) |  |  |  | 685 nM | 343 nM | 978 nM
